# Data taken from patent US20260234738A1 (Regeneron, published 2026).
# Target: SARS-COV-2 RBD extracellular domain expressed with a C-terminal mouse IgG2a (SARS-CoV-2)
Binder,Kd,t½
"mAb10956 (antibody, V domains shown) VH: EVQLVESGGGLVQPGGSLRLSCAASGLTVSSNYMSWVRQAPGKGLEWVSVIYSGGSTFYADSVKGRFTISRDNSKNTLYLQMNSLRAEDTAVYYCARDLIKYGMDVWGQGTTVTVSS VL: not shown",0.395 nM,1.3 h
"mAb10957 (antibody, V domains shown) VH: EVQLVESGGGLVQPGGSLRLSCAASGVTVSSNYMSWVRQAPGKGLEWVSVIYSGGSTFYADSVKGRFTISRDNSKNTLFLQMNSLRIEDTAVYYCARDLGPYGMDVWGQGTTVTVSS VL: DIQLTQSPSFLSASVGDRVTITCRASQGISSYLAWYQQKPGKAPKLLIYAASTLQSGVPSRFSGSGSGTQFILTISSLQPEDFATYYCQQLNSYPGFTFGPGTKVDIKR",≤ 0.0279 nM,≥ 19.2 h
